Columns and labels:
[1] = target: MslH (lasso peptide epimerase), N-terminally His6-tagged, wild type (Streptomyces griseorubiginosus); assay: SEC; gel-filtration of purified recombinant His6-MslH; apparent molecular weight against the 49.4 kDa calculated for the monomer
[2] = target: MslH (lasso peptide epimerase), N-terminally His6-tagged, wild type (Streptomyces griseorubiginosus); assay: crystal structure; MslH:apo, His6-MslH 5 mg/ml, sitting-drop vapor diffusion, 20 °C; space group I422, one monomer in the asymmetric unit; 2.30 Å
[3] = target: MslH (lasso peptide epimerase), N-terminally His6-tagged, wild type (Streptomyces griseorubiginosus); assay: crystal structure; co-crystallisation: purified His6-MslA analogue-MslB1 complex mixed with His6-MslH (5 mg/ml) at 1.2:1 mole ratio 16 h before the precipitant; sitting drops, 20 °C; one monomer in the asymmetric unit

stoichiometry N [1]: 8
stoichiometry N [2]: 8
stoichiometry N [3]: 8
Substance: MslH (lasso peptide epimerase), N-terminally His6-tagged, wild type (enzyme)
